The values that follow come from patent US20230399384A1.

Where two headings read alike, the source gives them in different places.

What all share (details): remark: other sources report otherwise
Assay [1] concerns the target T1, sCoV2-RBD (Fc-tagged RBD of SARS-CoV-2 S protein) (SARS-CoV-2; human), P0DTC2.
Assay [2] concerns the target T1, sCoV2-RBD (Fc-tagged RBD of SARS-CoV-2 …). This is another data set of the same source.
The target of assay [3] is trimeric prefusion S protein of SARS-CoV-2 (SARS-CoV-2), P0DTC2.
Assay [4] has as its target T1, sCoV2-RBD (Fc-tagged RBD of SARS-CoV-2 …). As to the kind of experiment: BLI (Octet) blocking of ACE2 binding to captured sCoV2-RBD.
Assay [5] has the same target. Kind of assay: ELISA titration on coated sCoV2-RBD.

B1: CoV2-14 (antibody, V domains shown)
VH: EVQLQQSGPGLVKPSQTLSLTCAISGDSVSSNSAAWNWIRQSPSRGLEWLGRTYYRSKWYNDYAVSVKSRITINPDTSKNQFSLQLNSVTPEDTAVYYCAREEQQLVHDYYYYGMDVWGQGTMVTVSS
VL: QAVVTQPASVSGSPGQSITISCTGTSSDIGAYNYISWYQQHPGKAPKLIIYEVSNRPSGISYRFSGSKSGNTASLTISGLQAEDEANYYCSSYAGSISFGGGTKVTVL
As to B1, the EC50 in assay [1] and in assay [5] was 0.58 nM in each case. Further, the EC50 (read off the curve) in assay [2] came to 0.5 nM. The Kd in assay [3] turned out to be 0.22 nM. This molecule also showed a 50% inhibitory concentration (IC50) in assay [4] of 3.14 µg/mL.
